8 molecules from patent publication US20180339043A1 (JANUX THERAPEUTICS, published 2018) can be followed below.

Usually EC50 stands for the concentration that produces a half-maximal response. Lower therefore signals an effect from little substance. As a reminder, the EC50 (read off the curve) is the concentration at which the effect is half-maximal.

Experiment [1] concerns the target T1, anti-mouse CTLA-4 antibody (clone 9D9).
T1 construct: also called 9D9 antibody; anti-CTLA4
As to the kind of experiment: competition ELISA: 0.3 nM anti-CTLA Ab / 30 min with peptide, then on mouse CTLA-4 (Example 11); competitor mouse CTLA-4. (ELISA stands for enzyme-linked immunosorbent assay.)
Description: (§1) Following this incubation the peptide-antibody complexes were transferred to mouse CTLA-4 coated and blocked ELISA plates and incubated further. Following a brief binding period the plates were washed and target bound antibody was detected by either anti-mouse Fc or anti-mouse kappa chain HRP conjugated antibodies using standard TMB-based chromogenic ELISA procedures. The effects of competition were determined by standard IC50 analysis.

The target in experiment [2] is T2, PD-L1 antibody.
T2 construct: also called anti-PD-L1
Briefly: dissociation ELISA: PD-L1 antibody dilution series on immobilised biotinylated peptide, incubation at pH 5.4.

The target of experiment [3] is T2, PD-L1 antibody. Briefly: dissociation ELISA: PD-L1 antibody dilution series on immobilised biotinylated peptide.
The target of experiment [4] is T2, PD-L1 antibody. Briefly: dissociation ELISA: PD-L1 antibody dilution series on immobilised biotinylated peptide, incubation at pH 7.2.
Experiment [5] concerns the target T2, PD-L1 antibody. As to the kind of experiment: dissociation ELISA: PD-L1 antibody dilution series on immobilised biotinylated peptide, incubation at pH 6.0.
Experiment [6] addresses T1, anti-mouse CTLA-4 antibody (clone 9D9). Briefly: competition ELISA: 0.3 nM anti-CTLA Ab / 30 min with peptide, then on mouse CTLA-4 (Example 11).
Description: as §1
For experiment [7], the target named is T3, Peptide 15 with C-terminal biotin (Example 13) (not fully specified; cysteine pairing not given here).
T3 peptide: GGPCNQVECHHQFT-{Biotin′}
As to the kind of experiment: ELISA, biotinylated Peptide 15 on Neutravidin, Fab titrated at pH 7.4 (Example 13).

Primed or numbered codes have the meaning given here. Ends that are not written are not given here. Biotin′ = not defined here

On to GGCPSLHPQWIHVC [Peptide 16], for which, in experiment [1], the binding result is reported as “binds”.

B1: Peptide 29 (peptide)
peptide: GGLCSTFYEPQVDICY
modifications: cysteine pairing not given here; also: biotinylated
notes: chemically synthesized biotinylated peptide
Turning to B1, the EC50 in experiment [2] was 1.5 nM; in experiment [4], 0.23 nM; in experiment [5], 0.49 nM. In addition, the “pH 5.4: pH 7.2 EC 50 ratio” value in experiment [3] was found to be 6.5. Besides, the “pH 6.0: pH 7.2 EC 50 ratio” value in experiment [3] is 2.1.

B2: Peptide 20 (peptide)
peptide: QLFYPSTYHIID
modifications: also: biotinylated
notes: as for B1
Take B2: the EC50 was 0.84 nM in experiment [2], 0.13 nM in experiment [4] and 0.21 nM in experiment [5]. The “pH 5.4: pH 7.2 EC 50 ratio” value in experiment [3] is 6.7. Further, the “pH 6.0: pH 7.2 EC 50 ratio” value in experiment [3] stood at 1.7.

B3: Peptide 22 (peptide)
peptide: GGMCHELFYSNLNWCQ
modifications: cysteine pairing not given here; also: biotinylated
notes: as for B1
B3: the results for the EC50 in experiment [2], in experiment [4] and in experiment [5] were 0.35 nM, 0.045 nM and 0.07 nM, respectively. For the same molecule, in experiment [3], the “pH 5.4: pH 7.2 EC 50 ratio” value came to 7.8. Moreover, the “pH 6.0: pH 7.2 EC 50 ratio” value in experiment [3] was 1.5.

B4: Peptide 23 (peptide)
peptide: GGHCVDMVDFYQQTCQ
modifications: cysteine pairing not given here; also: biotinylated
notes: Chemically synthesized biotinylated peptide; also called 23 (Control)
B4: the binding result in experiment [6] is listed as “no binding (tested: 50 uM)”. The EC50 amounted to 3.9 nM in experiment [2], 0.3 nM in experiment [4] and 1.3 nM in experiment [5]. The “pH 5.4: pH 7.2 EC 50 ratio” value in experiment [3] was found to be 12.9. The “pH 6.0: pH 7.2 EC 50 ratio” value in experiment [3] stood at 4.3.

B5: anti-mouse CTLA-4 (clone 9D9) Fab fragment (Fab, V domains shown)
VH: EAKLQESGPVLVKPGASVKMSCKASGYTFTDYYMNWVKQSHGKSLEWIGVINPYNGDTSYNQKFKGKATLTVDKSSSTAYMELNSLTSEDSAVYYCARYYGSWFAYWGQGTLITVST
VL: DIVMTQTTLSLPVSLGDQASISCRSSQSIVHSNGNTYLEWYLQKPGQSPKLLIYKVSNRFSGVPDRFSGSGSGTDFTLKISRVEAEDLGVYYCFQGSHVPYTFGGGTKLEIKR
notes: Monovalent Fab fragment of 9D9; also called mCTLA-4 Fab; a-mCTLA-4 Fab
On to B5, for which the “EC50 (read off the curve)” value in experiment [7] was roughly 200 nM.
For GGCQIHDPHTWHLC [Peptide 19], the binding result in experiment [1] is listed as “binds”.

B6: Peptide 24 (peptide)
peptide: GGCHNKSGLFYHYC
modifications: cysteine pairing not given here; also: biotinylated
notes: as for B1
As to B6, the figures for the EC50 in experiment [2], in experiment [4] and in experiment [5] were 1.3 nM, 0.2 nM and 0.56 nM, respectively. Besides, in experiment [3], the “pH 5.4: pH 7.2 EC 50 ratio” value was determined as 6.6. In addition, the “pH 6.0: pH 7.2 EC 50 ratio” value in experiment [3] stood at 2.8.
